T1: murine B7-H4 (murine, UniProt Q7TSP5 25-257)
T1 chain: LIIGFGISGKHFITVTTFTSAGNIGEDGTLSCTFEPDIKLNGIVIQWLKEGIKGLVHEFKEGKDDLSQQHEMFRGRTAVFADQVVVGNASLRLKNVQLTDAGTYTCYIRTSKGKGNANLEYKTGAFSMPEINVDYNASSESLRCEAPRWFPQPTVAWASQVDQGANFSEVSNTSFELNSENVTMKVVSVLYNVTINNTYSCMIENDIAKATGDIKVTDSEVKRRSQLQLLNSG

T2: human B7-H4 (human, UniProt Q7Z7D3 25-282)
T2 chain: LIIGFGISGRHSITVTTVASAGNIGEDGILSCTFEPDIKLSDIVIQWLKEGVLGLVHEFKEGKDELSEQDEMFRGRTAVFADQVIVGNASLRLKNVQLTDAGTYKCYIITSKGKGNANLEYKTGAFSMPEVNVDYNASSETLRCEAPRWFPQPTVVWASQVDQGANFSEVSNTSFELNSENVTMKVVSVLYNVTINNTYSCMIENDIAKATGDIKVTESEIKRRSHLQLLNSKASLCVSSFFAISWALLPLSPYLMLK

T3: cynomolgus monkey B7-H4 (cynomolgus monkey, UniProt A0A2K5U6P5 25-282)
T3 chain: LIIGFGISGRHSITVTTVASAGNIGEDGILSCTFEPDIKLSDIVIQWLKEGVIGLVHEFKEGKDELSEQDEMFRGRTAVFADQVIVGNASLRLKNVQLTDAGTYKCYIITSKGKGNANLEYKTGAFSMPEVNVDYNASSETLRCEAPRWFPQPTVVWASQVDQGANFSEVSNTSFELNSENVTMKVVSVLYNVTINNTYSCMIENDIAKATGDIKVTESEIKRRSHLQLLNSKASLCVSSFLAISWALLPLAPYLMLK


What was measured:
human 4-1BB = human 4-1BB (human, UniProt Q07011 24-255); assay: flow cytometry
CD3 on human T cells = CD3 on human T cells (human, UniProt P07766 23-207); assay: flow cytometry; T cells
murine B7-H4 = molecular target: T1, murine B7-H4; assay: flow cytometry; CHO-K1/m B7H4 cells
human B7-H4 = molecular target: T2, human B7-H4; assay: flow cytometry; CHO-K1/hu B7H4 cells
cynomolgus monkey B7-H4 = molecular target: T3, cynomolgus monkey B7-H4; assay: flow cytometry; CHO-K1/cyno B7H4 cells

CD3 on human T cells, sequence (P07766 23-207): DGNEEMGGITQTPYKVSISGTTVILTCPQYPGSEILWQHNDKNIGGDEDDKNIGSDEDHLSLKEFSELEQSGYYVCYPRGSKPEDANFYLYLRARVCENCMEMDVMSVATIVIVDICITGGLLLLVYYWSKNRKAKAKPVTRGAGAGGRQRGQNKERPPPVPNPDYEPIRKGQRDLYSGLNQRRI
human 4-1BB, sequence (Q07011 24-255): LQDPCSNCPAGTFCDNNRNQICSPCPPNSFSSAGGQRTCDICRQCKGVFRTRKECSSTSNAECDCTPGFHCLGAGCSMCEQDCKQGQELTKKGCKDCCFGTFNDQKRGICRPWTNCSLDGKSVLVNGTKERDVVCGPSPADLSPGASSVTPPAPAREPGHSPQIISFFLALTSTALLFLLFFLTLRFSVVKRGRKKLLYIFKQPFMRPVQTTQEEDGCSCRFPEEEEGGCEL

EC50 (human 4-1BB)	EC50 (CD3 on human T cells)	EC50 (murine B7-H4)	EC50 (human B7-H4)	EC50 (cynomolgus monkey B7-H4)	Binder
1.63 nM	–	–	–	–	Urelumab (antibody, V domains shown) VH: QVQLQQWGAGLLKPSETLSLTCAVYGGSFSGYYWSWIRQSPEKGLEWIGEINHGGYVTYNPSLESRVTISVDTSKNQFSLKLSSVTAADTAVYYCARDYGPGNYDWYFDLWGRGTLVTVSS VL: EIVLTQSPATLSLSPGERATLSCRASQSVSSYLAWYQQKPGQAPRLLIYDASNRATGIPARFSGSGSGTDFTLTISSLEPEDFAVYYCQQRSNWPPALTFGGGTKVEIK
–	~59.3 nM	~250 nM	7.7 nM	5.83 nM	B7-H4×CD3 bispecific antibody PR003733 (bispecific antibody) light: QAVVTQEPSLTVSPGGTVTLTCRSSTGAVTTSNYANWVQQKPGQAPRGLIGGTNKRAPWTPARFSGSLLGDKAALTLLGAQPEDEAEYFCALWYSNLWVFGGGTKLTVLGQPKAAPSVTLFPPSSEELQANKATLVCLISDFYPGAVTVAWKADSSPVKAGVETTTPSKQSNNKYAASSYLSLTPEQWKSHRSYSCQVTHEGSTVEKTVAPTECS heavy: not shown EIVMTQSPASLSVSPGERATLSCRASQSVSSNLAWYQQKPGQAPRLLIYGASTRATGIPARVSGGGSGTEFTLTISSLQSEDFAVYYCQQYKNWPFTFGPGTKLEIKGGGGSGGGGSGGGGSGGGGSQVQLVQSGAEVKKPGSSMRVSCKASEDTFSSYAISWVRQAPGQGLEWMGGTAPIFGTTNYAQKFQGRVTITADKSTSTAYMELSSLRSEDTAVYYCARGGPYFDYWGQGTLVTVSSASEPKSSDKTHTCPPCPAPEAAGGPSVFLFPPKPKDTLMISRTPEVTCVVVDVSHEDPEVKFNWYVDGVEVHNAKTKPREEQYNSTYRVVSVLTVLHQDWLNGKEYKCKVSNKALPAPIEKTISKAKGQPREPQVCTLPPSREEMTKNQVSLSCAVKGFYPSDIAVEWESNGQPENNYKTTPPVLDSDGSFFLVSKLTVDKSRWQQGNVFSCSVMHEALHNHYTQKSLSLSPGK
–	~201 nM	~62.5 nM	6.06 nM	4.96 nM	B7-H4×CD3 bispecific antibody PR003899 (bispecific antibody) light: QAVVTQEPSLTVSPGGTVTLTCRSSTGAVTTSNYANWVQQKPGQAPRGLIGGTNKRAPWTPARFSGSLLGDKAALTLLGAQPEDEAEYFCALWYSNLWVFGGGTKLTVLGQPKAAPSVTLFPPSSEELQANKATLVCLISDFYPGAVTVAWKADSSPVKAGVETTTPSKQSNNKYAASSYLSLTPEQWKSHRSYSCQVTHEGSTVEKTVAPTECS heavy: not shown EIVMTQSPASLSVSPGERATLSCRASQSVSSNLAWYQQKPGQAPRLLIYGASTRATGIPARVSGGGSGTEFTLTISSLQSEDFAVYYCQQYKNWPFTFGPGTKLEIKGGGGSGGGGSGGGGSGGGGSQVQLVQSGAEVKKPGSSMRVSCKASEDTFSSYAISWVRQAPGQGLEWMGGTAPIFGTTNYAQKFQGRVTITADKSTSTAYMELSSLRSEDTAVYYCARGGPYFDYWGQGTLVTVSSASEPKSSDKTHTCPPCPAPEAAGGPSVFLFPPKPKDTLMISRTPEVTCVVVDVSHEDPEVKFNWYVDGVEVHNAKTKPREEQYNSTYRVVSVLTVLHQDWLNGKEYKCKVSNKALPAPIEKTISKAKGQPREPQVCTLPPSREEMTKNQVSLSCAVKGFYPSDIAVEWESNGQPENNYKTTPPVLDSDGSFFLVSKLTVDKSRWQQGNVFSCSVMHEALHNHYTQKSLSLSPGK

— patent publication US20250326843A1 (published 2025)
